# From the supplement of paper PMC11316812
# ± gives the standard deviation of the averaged measurements.
# What was measured:
# hTERT-HMEC = assay: percentage of EdU-negative (G0-arrested) nuclei per well, 72 h; higher = more G0 arrest; conditions: reference: sequence is the full UniProt precursor, the tested protein was the secreted form or ectodomain
# MCF7 = assay: as above; conditions: reference: sequence is the full UniProt precursor, the tested protein was the secreted form or ectodomain
# [1] = protein concentration 0.0225 µM
# [2] = protein concentration 0.03125 µM
# [3] = protein concentration 0.3125 µM
# [4] = protein concentration 0.0185 µM
# [5] = protein concentration 0.01925 µM
# [6] = protein concentration 0.1925 µM
# 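Further: secreted proteins added to cultured cells, EdU pulse at the end, nuclei found by Hoechst imaging, EdU status from nuclear versus surrounding ring intensity ratio, PBS as neutral control.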
sequence,measurement,setting,value
MARAMAAAWPLLLVALLVLSWPPPGTGDVVVQAPTQVPGFLGDSVTLPCYLQVPNMEVTHVSQLTWARHGESGSMAVFHQTQGPSYSESKRLEFVAARLGAELRNASLRMFGLRVEDEGNYTCLFVTFPQGSRSVDIWLRVLAKPQNTAEVQKVQLTGEPVPMARCVSTGGRPPAQITWHSDLGGMPNTSQVPGFLSGTVTVTSLWILVPSSQVDGKNVTCKVEHESFEKPQLLTVNLTVYYPPEVSISGYDNNWYLGQNEATLTCDARSNPEPTGYNWSTTMGPLPPFAVAQGAQLLIRPVDKPINTTLICNVTNALGARQAELTVQVKEGPPSEHSGISRNAIIFLVLGILVFLILLGIGIYFYWSKCSREVLWHCHLCPSSTEHASASANGHVSYSAVSRENSSSQDPQTEGTR [A0A0C4DG49],percentage of EdU-negative,hTERT-HMEC; [1],4.71 ± 0.025%
same,percentage of EdU-negative,hTERT-HMEC; protein concentration 0.225 µM,10.7 ± 2.4%
same,percentage of EdU-negative,MCF7; [1],23.8 ± 1.6%
same,percentage of EdU-negative,MCF7; protein concentration 0.225 µM,26.1 ± 2.5%
MARARGSPCPPLPPGRMSWPHGALLFLWLFSPPLGAGGGGVAVTSAAGGGSPPATSCPVACSCSNQASRVICTRRDLAEVPASIPVNTRYLNLQENGIQVIRTDTFKHLRHLEILQLSKNLVRKIEVGAFNGLPSLNTLELFDNRLTTVPTQAFEYLSKLRELWLRNNPIESIPSYAFNRVPSLRRLDLGELKRLEYISEAAFEGLVNLRYLNLGMCNLKDIPNLTALVRLEELELSGNRLDLIRPGSFQGLTSLRKLWLMHAQVATIERNAFDDLKSLEELNLSHNNLMSLPHDLFTPLHRLERVHLNHNPWHCNCDVLWLSWWLKETVPSNTTCCARCHAPAGLKGRYIGELDQSHFTCYAPVIVEPPTDLNVTEGMAAELKCRTGTSMTSVNWLTPNGTLMTHGSYRVRISVLHDGTLNFTNVTVQDTGQYTCMVTNSAGNTTASATLNVSAVDPVAAGGTGSGGGGPGGSGGVGGGSGGYTYFTTVTVETLETQPGEEALQPRGTEKEPPGPTTDGVWGGGRPGDAAGPASSSTTAPAPRSSRPTEKAFTVPITDVTENALKDLDDVMKTTKIIIGCFVAITFMAAVMLVAFYKLRKQHQLHKHHGPTRTVEIINVEDELPAASAVSVAAAAAVASGGGVGGDSHLALPALERDHLNHHHYVAAAFKAHYSSNPSGGGCGGKGPPGLNSIHEPLLFKSGSKENVQETQI [Q9NT99],percentage of EdU-negative,hTERT-HMEC; [2],5.15 ± 0.48%
same,percentage of EdU-negative,hTERT-HMEC; [3],6.95 ± 0.74%
same,percentage of EdU-negative,MCF7; [2],22.3 ± 1.6%
same,percentage of EdU-negative,MCF7; [3],26.4 ± 1.3%
MAREMTILGSAVLTLLLAGYLAQQYLPLPTPKVIGIDLGTTYCSVGVFFPGTGKVKVIPDENGHISIPSMVSFTDNDVYVGYESVELADSNPQNTIYDAKRFIGKIFTAEELEAEIGRYPFKVLNKNGMVEFSVTSNETITVSPEYVGSRLLLKLKEMAEAYLGMPVANAVISVPAEFDLKQRNSTIEAANLAGLKILRVINEPTAAAMAYGLHKADVFHVLVIDLGGGTLDVSLLNKQGGMFLTRAMSGNNKLGGQDFNQRLLQYLYKQIYQTYGFVPSRKEEIHRLRQAVEMVKLNLTLHQSAQLSVLLTVEEQDRKEPHSSDTELPKDKLSSADDHRVNSGFGRGLSDKKSGESQVLFETEISRKLFDTLNEDLFQKILVPIQQVLKEGHLEKTEIDEVVLVGGSTRIPRIRQVIQEFFGKDPNTSVDPDLAVVTGVAIQAGIDGGSWPLQVSALEIPNKHLQKTNFN,percentage of EdU-negative,hTERT-HMEC; [4],4.53 ± 0.31%
same,percentage of EdU-negative,hTERT-HMEC; protein concentration 0.185 µM,5.54 ± 0.38%
same,percentage of EdU-negative,MCF7; [4],25 ± 2%
same,percentage of EdU-negative,MCF7; protein concentration 0.185 µM,25.9 ± 0.78%
MARERPPGRGCGVLRRCLLGAVLLFGLRLCAELRRAGPGSPTRSAPPGPAWRPPGPHLPPAPGQPRGASRRQVTYVRSGRRAPPGGGGSGTPEPGCCAPRGRPRRKGPRWHIDLQPWAGSAQSLDEEAWRFLRYISTTQIACNHMNTDSLATDSSPTHKPWSVCLDDRFNLAHQIRNKQCRLYSLGLGSDDTHFEVSMANNGCEVHRFDPSVKSAHILESQHLWYHRLSIDWRDPHPAVAAQKPHSNTRKLGSILNEFGHHKIDVLKADLESAEWKVLENLILEDVLEQIGQLIFEIHLHWPGFEVSGSDSSVVRFWYSLLKELEQKDFRLFHSYKDLSKPQLFLKKDIFNASSCYTLSWVNTRWK [Q5JXM2],percentage of EdU-negative,hTERT-HMEC; protein concentration 0.017 µM,4.87 ± 0.35%
same,percentage of EdU-negative,hTERT-HMEC; protein concentration 0.17 µM,10.9 ± 1.9%
same,percentage of EdU-negative,MCF7; protein concentration 0.017 µM,26.3 ± 1.3%
same,percentage of EdU-negative,MCF7; protein concentration 0.17 µM,28.6 ± 1.7%
MARFGLPALLCTLAVLSAALLAAELKSKSCSEVRRLYVSKGFNKNDAPLHEINGDHLKICPQGSTCCSQEMEEKYSLQSKDDFKSVVSEQCNHLQAVFASRYKKFDEFFKELLENAEKSLNDMFVKTYGHLYMQNSELFKDLFVELKRYYVVGNVNLEEMLNDFWARLLERMFRLVNSQYHFTDEYLECVSKYTEQLKPFGDVPRKLKLQVTRAFVAARTFAQGLAVAGDVVSKVSVVNPTAQCTHALLKMIYCSHCRGLVTVKPCYNYCSNIMRGCLANQGDLDFEWNNFIDAMLMVAERLEGPFNIESVMDPIDVKISDAIMNMQDNSVQVSQKVFQGCGPPKPLPAGRISRSISESAFSARFRPHHPEERPTTAAGTSLDRLVTDVKEKLKQAKKFWSSLPSNVCNDERMAAGNGNEDDCWNGKGKSRYLFAVTGNGLANQGNNPEVQVDTSKPDILILRQIMALRVMTSKMKNAYNGNDVDFFDISDESSGEGSGSGCEYQQCPSEFDYNATDHAGKSANEKADSAGVRPGAQAYLLTVFCILFLVMQREWR,percentage of EdU-negative,hTERT-HMEC; [5],4.9 ± 0.24%
same,percentage of EdU-negative,hTERT-HMEC; [6],4.77 ± 0.82%
same,percentage of EdU-negative,MCF7; [5],26.5 ± 0.51%
same,percentage of EdU-negative,MCF7; [6],29.9 ± 0.64%
MARFPKADLAAAGVMLLCHFFTDQFQFADGKPGDQILDWQYGVTQAFPHTEEEVEVDSHAYSHRWKRNLDFLKAVDTNRASVGQDSPEPRSFTDLLLDDGQDNNTQIEEDTDHNYYISRIYGPSDSASRDLWVNIDQMEKDKVKIHGILSNTHRQAARVNLSFDFPFYGHFLREITVATGGFIYTGEVVHRMLTATQYIAPLMANFDPSVSRNSTVRYFDNGTALVVQWDHVHLQDNYNLGSFTFQATLLMDGRIIFGYKEIPVLVTQISSTNHPVKVGLSDAFVVVHRIQQIPNVRRRTIYEYHRVELQMSKITNISAVEMTPLPTCLQFNRCGPCVSSQIGFNCSWCSKLQRCSSGFDRHRQDWVDSGCPEESKEKMCENTEPVETSSRTTTTVGATTTQFRVLTTTRRAVTSQFPTSLPTEDDTKIALHLKDNGASTDDSAAEKKGGTLHAGLIIGILILVLIVATAILVTVYMYHHPTSAASIFFIERRPSRWPAMKFRRGSGHPAYAEVEPVGEKEGFIVSEQC [Q6UX71],percentage of EdU-negative,hTERT-HMEC; [1],4.63 ± 0.96%
same,percentage of EdU-negative,hTERT-HMEC; protein concentration 0.225 µM,7.25 ± 1.4%
same,percentage of EdU-negative,MCF7; [1],27.4 ± 2.7%
same,percentage of EdU-negative,MCF7; protein concentration 0.225 µM,26.561 ± 0.011%
